Like-named read-outs stand apart in the source and are kept apart here.
What was measured:
Experiment in all cases: dot blot: serial dilutions of hLIGHT spotted on PVDF, probed with 5 μg/ml antibody
[1] = biological target: soluble FLAG-tagged recombinant hLIGHT (Gly66-Val240 with N-terminal FLAG), native form (human) (UniProt O43557)
[2] = biological target: denatured soluble hLIGHT (boiled in 2x SDS sample buffer) (human) (UniProt O43557)
[3] = biological target: denatured soluble hLIGHT (boiled in 2x SDS sample buffer) (human) (UniProt O43557); remark: listed apart in the source

Binder	lowest detection limit (dot blot) [1] [ng]	lowest detection limit (dot blot) [2] [ng]	lowest detection limit (dot blot) [3] [ng]
F19 antibody (produced by hybridoma 124F19, ATCC PTA-7819) (antibody, human IgG1, V domains shown) VH: QVQLQQWGAGLLKPSETLSLTCAVYGGSFSGYNWHWIRQPPGKGLEWIGEITHSGSTNYNPSLKSRVTISVDTSKNQFSLKLSSVTAADTAVYYCVREIAVAGTGYYGMDVWGQGTTVTVSS VL: AIQLTQSPSSLSASVGDRVTITCRASRGINSAFAWYQQKPGKAPKLLIYDASSLESGVPSRFSGSGSGTDFTLTISSLQPEDFATYYCQQFNSYPLTFGGGTKVEIK	23	> 5000	–
E63 antibody (produced by hybridoma 124E63, ATCC PTA-7818) (antibody, V domains shown) VH: QVQLQESGPGLVKPSETLSLTCIVSGGSVSSGGYYWSWIRQPPGKGLEWIGYIYYSGSTNYNPSLKSRVTISVDTSKNQFSLKLSSVTAADTAVYYCARWITMFRGVGFDPWGQGTLVTVSS VL: EIVLTQSPDFQSVTPKEKVTITCRASQSIGSSLHWYQQKPDQSPKLLIKYASQSFSGVPSRFSGSGSGTDFTLTINSLEAEDAAAYYCHQSSSLPLTFGGGTKVEIK	3.9	–	139

Reference: patent publication CN101663321A
